Molecular target: Rac1 (Homo sapiens, UniProt P63000)
Assay: GST pull-down

Kd: 243 nM
B1: PAK1 RBD (protein)
chain: KKEKERPEISLPSDFEHTIHVGFDAVTGEFTGMPEQWARLLQTSNITKSEQKKNPQAVLDVLEFYNSKKTSNSQKYMSFTDKSA

From article PMC5470993 (2017)
